Assay [1] addresses T1, human MSLN-R1-his protein (human, UniProt Q13421 296-390).
T1 construct: Region 1 of human mesothelin, made in HEK293E cells, His-tagged; also called human MSLN-R1 protein; hMSLN-R1-his; not shown: His tag
T1 chain: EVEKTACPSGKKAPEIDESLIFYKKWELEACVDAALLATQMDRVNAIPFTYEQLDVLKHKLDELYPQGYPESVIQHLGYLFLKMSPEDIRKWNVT
The experiment in a line: ELISA on coated MSLN-R1; antibody 1 nM. A general note: In an ELISA, binding on a coated surface is turned into a signal by an enzyme label.

Assay [2] concerns the target T2, human MSLN-R2-his protein (human, UniProt Q13421 391-486).
T2 construct: Region 2 of human mesothelin, made in HEK293E cells, His-tagged; also called human MSLN-R2 protein; hMSLN-R2-his; not shown: His tag
The assay is described as follows: ELISA on coated MSLN-R2; antibody 1 nM.
T2 sequence (Q13421 other isoform, or with tags, fused parts or gaps): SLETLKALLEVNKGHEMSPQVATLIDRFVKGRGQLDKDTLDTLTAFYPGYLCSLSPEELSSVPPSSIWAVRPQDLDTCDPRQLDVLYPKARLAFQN

Assay [3] concerns the target T3, human MSLN-R3-his protein (human, UniProt Q13421 487-598).
T3 construct: Region 3 of human mesothelin, made in HEK293E cells, His-tagged; also called human MSLN-R3 protein; hMSLN-R3-his; not shown: His tag
The assay is described as follows: ELISA on coated MSLN-R3; antibody 1 nM.
T3 sequence (Q13421 495-606): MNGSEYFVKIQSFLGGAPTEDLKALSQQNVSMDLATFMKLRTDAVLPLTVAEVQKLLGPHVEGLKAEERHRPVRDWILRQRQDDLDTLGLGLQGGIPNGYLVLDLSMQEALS

Assay [4] deals with T1, human MSLN-R1-his protein. The experiment in a line: ELISA on coated MSLN-R1; antibody 10 nM.
Experimental: (§1) The plate was sealed with a plastic film and incubated at 4° C. overnight. The next day, the plate was washed twice with PBST, and a blocking buffer [PBS+2% (w/w) BSA] was added for blocking at room temperature for 2 h. The blocking buffer was discarded, and a chimeric antibody or negative control antibody serially diluted from 100 nM was added at 50 μL/well. After incubation at 37° C. for 2 h, the plate was washed 3 times with PBST. […] After incubation at 37° C. for 2 h, the plate was washed 5 times with PBST. A TMB substrate was added at 50 μL/well for incubation at room temperature for 5-10 min, and then a stop solution (1.0 N HCl) was added at 50 μL/well.
The target in assay [5] is T2, human MSLN-R2-his protein. The experiment in a line: ELISA on coated MSLN-R2; antibody 10 nM.
Experimental: as §1
Assay [6] concerns the target T3, human MSLN-R3-his protein. The assay is described as follows: ELISA on coated MSLN-R3; antibody 10 nM.
The target of assay [7] is T1, human MSLN-R1-his protein. The assay is described as follows: ELISA on coated MSLN-R1; antibody 0.1 nM.
Experimental: as §1
In assay [8] the target is T1, human MSLN-R1-his protein. The assay is described as follows: ELISA on coated MSLN-R1; antibody 100 nM.
In assay [9] the target is T2, human MSLN-R2-his protein. The experiment in a line: ELISA on coated MSLN-R2; antibody 0.1 nM.
Assay [10] concerns the target T2, human MSLN-R2-his protein. The experiment in a line: ELISA on coated MSLN-R2; antibody 100 nM.
Assay [11] concerns the target T3, human MSLN-R3-his protein. The experiment in a line: ELISA on coated MSLN-R3; antibody 0.1 nM.
Assay [12] addresses T3, human MSLN-R3-his protein. The experiment in a line: ELISA on coated MSLN-R3; antibody 100 nM.
Experimental: as §1
Assay [13] concerns the target T1, human MSLN-R1-his protein. The assay is described as follows: ELISA on coated MSLN-R1; antibody 0.01 nM.
Experimental: as §1
Assay [14] concerns the target T2, human MSLN-R2-his protein. The experiment in a line: ELISA on coated MSLN-R2; antibody 0.01 nM.
Experimental: as §1
Assay [15] concerns the target T3, human MSLN-R3-his protein. The assay is described as follows: ELISA on coated MSLN-R3; antibody 0.01 nM.
Experimental: as §1
Assay [16] concerns the target T1, human MSLN-R1-his protein. The assay is described as follows: ELISA on coated MSLN-R1; antibody 0.001 nM.
Assay [17] concerns the target T2, human MSLN-R2-his protein. The assay is described as follows: ELISA on coated MSLN-R2; antibody 0.001 nM.
The target in assay [18] is T3, human MSLN-R3-his protein. The experiment in a line: ELISA on coated MSLN-R3; antibody 0.001 nM.
Experimental: as §1
Assay [19] deals with T1, human MSLN-R1-his protein. The assay is described as follows: ELISA on coated MSLN-R1; antibody 0.0001 nM.
Experimental: as §1
For assay [20], the target named is T2, human MSLN-R2-his protein. The assay is described as follows: ELISA on coated MSLN-R2; antibody 0.0001 nM.
Experimental: as §1
The target of assay [21] is T3, human MSLN-R3-his protein. The assay is described as follows: ELISA on coated MSLN-R3; antibody 0.0001 nM.
Experimental: as §1
The target in assay [22] is T1, human MSLN-R1-his protein. The assay is described as follows: ELISA on coated MSLN-R1; no antibody (blank).
Experimental: as §1
The target in assay [23] is T2, human MSLN-R2-his protein. The assay is described as follows: ELISA on coated MSLN-R2; no antibody (blank).
Experimental: as §1
Assay [24] deals with T3, human MSLN-R3-his protein. The assay is described as follows: ELISA on coated MSLN-R3; no antibody (blank).
Assay [25] deals with T4, human MSLN-R2-his protein (human, UniProt Q13421 391-486).
T4 construct: it is put last here; also called human MSLN-R2 protein; hMSLN-R2-his; not shown: His tag
The assay is described as follows: ELISA on coated antigen, antibody 2 nM.
T4 sequence (Q13421 other isoform, or with tags, fused parts or gaps): as the sequence (Q13421 other isoform, or with tags, fused parts or gaps) above

Assay [26] deals with T5, human MSLN-R3-his protein (human, UniProt Q13421 487-598).
T5 construct: it is put last here; also called human MSLN-R3 protein; hMSLN-R3-his; not shown: His tag
The experiment in a line: ELISA on coated antigen, antibody 2 nM.
T5 sequence (Q13421 495-606): as the sequence (Q13421 495-606) above

Assay [27] has as its target T4, human MSLN-R2-his protein. The experiment in a line: ELISA on coated antigen, antibody 20 nM.
Experimental: as §1
The target in assay [28] is T5, human MSLN-R3-his protein. The experiment in a line: ELISA on coated antigen, antibody 20 nM.
The target of assay [29] is T4, human MSLN-R2-his protein. The experiment in a line: ELISA on coated antigen, antibody 0.2 nM.
Experimental: as §1
The target of assay [30] is T4, human MSLN-R2-his protein. The experiment in a line: ELISA on coated antigen, antibody 200 nM.
Experimental: as §1
Assay [31] has as its target T5, human MSLN-R3-his protein. The assay is described as follows: ELISA on coated antigen, antibody 0.2 nM.
Experimental: as §1
Assay [32] has as its target T5, human MSLN-R3-his protein. The assay is described as follows: ELISA on coated antigen, antibody 200 nM.
Experimental: as §1
Assay [33] deals with T4, human MSLN-R2-his protein. The experiment in a line: ELISA on coated antigen, antibody 0.02 nM.
Experimental: as §1
The target in assay [34] is T5, human MSLN-R3-his protein. The experiment in a line: ELISA on coated antigen, antibody 0.02 nM.
Experimental: as §1
Assay [35] deals with T4, human MSLN-R2-his protein. The experiment in a line: ELISA on coated antigen, antibody 0.002 nM.
Assay [36] has as its target T5, human MSLN-R3-his protein. The experiment in a line: ELISA on coated antigen, antibody 0.002 nM.
Experimental: as §1
The target in assay [37] is T4, human MSLN-R2-his protein. The assay is described as follows: ELISA on coated antigen, antibody 0.0002 nM.
Assay [38] deals with T5, human MSLN-R3-his protein. The assay is described as follows: ELISA on coated antigen, antibody 0.0002 nM.
Experimental: as §1
For assay [39], the target named is T4, human MSLN-R2-his protein. The assay is described as follows: ELISA on coated antigen, no antibody (blank, column 'none').
The target of assay [40] is T5, human MSLN-R3-his protein. The assay is described as above.

B1: S009-F8-33.12 (antibody, human IgG1, kappa, V domains shown)
VH: EVQLQQSGAELVKPGASVKLSCTASAFNIKDYYMHWVKQRTEQGLEWIGRIDPEDGETKYAPKFQGKATITADTSSNTAYLQLSSLTSEDTAVYYCASGSGTGAMDYWGQGTSVTVSS
VL: DIVMTQSQKFMSTSVGDRVSITCKASQNVRTAVGWYQQKPGQSPKALIYLASNRHTGVPDRFTGSGSGTDFTLTISNVQSEDLADYFCLQHWNSPYTFGGGTKLVIKR
For B1, the OD450 turned out to be 2.45 OD450 in assay [1]; 0.04 OD450 in assay [2]; 0.04 OD450 in [3]; 2.66 OD450 in assay [4]; 0.04 OD450 in [5]; 0.05 OD450 in assay [6]. Besides, the OD450 in assay [7] was 1.6 OD450; in [8] it was 2.64 OD450; in assay [9], 0.04 OD450; in [10], 0.05 OD450; in assay [11] it was 0.03 OD450; in assay [12] it was 0.06 OD450. The OD450 was 0.43 OD450 in assay [13]; 0.04 OD450 in assay [14]; 0.04 OD450 in assay [15]; 0.11 OD450 in assay [16]; 0.04 OD450 in assay [17]; 0.04 OD450 in assay [18]. Moreover, the OD450 came to 0.05 OD450 in [19]; 0.04 OD450 in assay [20]; 0.04 OD450 in [21]; 0.04 OD450 in [22]; 0.04 OD450 in [23]; 0.03 OD450 in [24].

B2: S009-F8-36.12 (antibody, human IgG1, kappa, V domains shown)
VH: EVQLQQSGPELVKPGASVKISCKASGYTFTDYYMNWVKQSHGKSLEWIGDINPNNGGTSYNQKFKGKATLTVDKSSSTAYMELRSLTSEDSAVYYCASWGYGSSSRGYFDYWGQGTTLTVSS
VL: QIVLSQSPAILSASPGEKVTMTCRASSSVSYMHWYQQKPGSSPKPWIYATSNLASGVPARFSGSGSGTSYSLTISRVEAEDAATYYCQQWSSNPWTFGGGTKLEIKR
For the molecule B2, the OD450 was found to be 0.04 OD450 in assay [1]; 0.04 OD450 in [2]; 0.05 OD450 in [3]; 0.04 OD450 in assay [4]; 0.04 OD450 in assay [5]; 0.14 OD450 in assay [6]. In addition, the OD450 is 0.04 OD450 in assay [7]; 0.05 OD450 in [8]; 0.03 OD450 in [9]; 0.05 OD450 in assay [10]; 0.04 OD450 in assay [11]; 1.19 OD450 in assay [12]. Besides, the OD450 in assay [13], in [14], in assay [15], in [16], in [17] and in [18] was 0.04 OD450 each time. The OD450 in assay [19] came to 0.04 OD450; in assay [20] it was 0.04 OD450; in [21], 0.04 OD450; in assay [22] it was 0.03 OD450; in assay [23] it was 0.04 OD450; in assay [24], 0.04 OD450.

B3: S009-F7.2.3 (antibody, human IgG1, kappa, V domains shown)
VH: ELQLVESGGDLVKPGGSLKLSCAASGFTFSSNGMSWLRQTPDKRLEWVATISSGGRYTYYPDSVKGRFTISRDNAKNTLYLQMSSLKSEDTAMYYCARRGIYDYFDCWGQGTTLTVSS
VL: DIQMTQSPASLSISVGETVTITCRASENIHSSLAWYQQKQGKSPQLLVYAATNLADGVPSRFSGSGSGSQYSLKINSLQSEDFGTYYCQHFWGTPWTFGGGTKLDIKR
notes: Human-murine chimeric antibody, human IgG1 heavy and kappa light constant regions
For B3, the OD450 came to 2.37 OD in assay [25]; 0.07 OD in assay [26]; 2.38 OD in assay [27]; 0.1 OD in assay [28]; 2.12 OD in [29]; 2.74 OD in assay [30]. Further, the OD450 in assay [31] is 0.06 OD; in assay [32], 0.2 OD; in assay [33] it was 1.22 OD; in assay [34] it was 0.06 OD; in assay [35], 0.41 OD; in assay [36], 0.06 OD. Besides, the OD450 amounted to 0.14 OD in assay [37], 0.06 OD in [38], 0.06 OD in assay [39] and 0.07 OD in assay [40].
